Paper PMC3027643

Target: mISCU/mNFS1/mISD11 complex (mouse) (UniProt Q9D7P6)
Assay: native MS; ESI native mass spectrometry of the quaternary complexes after gel filtration, 50 mM ammonium acetate; masses of the GST-mFXN and the mFXN-HIS complex compared

Chain of UniProt Q9D7P6 (Q9D7P6 36-168, chain 1 of 3): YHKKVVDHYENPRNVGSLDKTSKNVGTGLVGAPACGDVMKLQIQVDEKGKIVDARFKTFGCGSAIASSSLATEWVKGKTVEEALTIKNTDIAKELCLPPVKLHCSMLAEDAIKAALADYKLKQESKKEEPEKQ
Chain of UniProt Q9D7P6 (Q9Z1J3 18-459, chain 2 of 3, further chain): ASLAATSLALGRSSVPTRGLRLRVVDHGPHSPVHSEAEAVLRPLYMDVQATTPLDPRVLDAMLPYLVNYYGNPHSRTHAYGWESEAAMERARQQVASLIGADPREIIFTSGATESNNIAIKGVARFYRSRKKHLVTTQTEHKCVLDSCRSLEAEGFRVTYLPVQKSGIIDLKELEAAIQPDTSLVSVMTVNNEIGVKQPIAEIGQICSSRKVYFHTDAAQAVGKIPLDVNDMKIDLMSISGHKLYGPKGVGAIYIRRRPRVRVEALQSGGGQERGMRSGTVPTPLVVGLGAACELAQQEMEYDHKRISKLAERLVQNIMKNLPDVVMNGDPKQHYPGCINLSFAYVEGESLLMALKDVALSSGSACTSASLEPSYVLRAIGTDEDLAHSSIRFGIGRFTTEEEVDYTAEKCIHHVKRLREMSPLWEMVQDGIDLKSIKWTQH
Chain of UniProt Q9D7P6 (Q8K215 whole entry, chain 3 of 3, further chain): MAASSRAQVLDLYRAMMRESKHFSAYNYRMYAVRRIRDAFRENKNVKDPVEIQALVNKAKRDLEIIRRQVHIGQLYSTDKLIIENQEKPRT

Question: mFXN-HIS (natural protein) was tested. Which stoichiometry N did it give?
Answer: Its stoichiometry N is 2.
